From patent US7056679 (ANTYRA, dated 2006) come the findings set out here.

No end group written: not given here.

Assay [1] deals with T1, DGI-2 (UniProt Q15004 1-111, limits assumed).
T1 construct: Soluble recombinant DGI-2 made by in vitro translation (RTS, pIVEX2.3-MCS vector) and coated on plates for the ELISA; vector tag not described; also called KIAA0101; DGI-2 polypeptide
T1 sequence (looked up): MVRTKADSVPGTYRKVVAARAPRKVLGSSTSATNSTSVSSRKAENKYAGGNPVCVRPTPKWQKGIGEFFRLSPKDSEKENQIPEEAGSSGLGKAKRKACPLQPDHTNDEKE
As to the kind of experiment: phage ELISA, coated DGI-2. The procedure: (§1) For analysis of individual target binders, colonies were picked and phage prepared as described above using helper phage, M13KO7. Ninety-six-well microtiter plates were coated with 500 ng/well of specific target protein, 500 ng/well lactate dehydrogenase (LDH) irrelevant or non-specific target, 500 ng/well of positive control antibody raised against ETAG, and negative control of non-fat milk powder-PBS 2% at 4° C. overnight. Plates were then blocked with 350 microliters/well PBS containing 2% non-fat milk for 1 hr at room temperature. One hundred microliters per well of phage from isolated clones were added and plates were incubated at room temperature for 2 hr after centrifuging samples for 20 minutes at 3500 rpm at 4° C. The phage solution was then removed, and the wells were washed three times with PBS at room temperature. Antibody raised against M13 conjugated to horseradish peroxidase (Pharmacia) was diluted 1:3000 in PBS-Tween and added to each well (100 µl/well). Incubation was for 1 hr at room temperature, followed by washing with PBS-(0.5%) Tween 3 times as described. Color was developed by addition of ABTS solution (100 µl/well; Boehringer, Indianapolis, Ind.). Plates were analyzed at 405 nm. A clone was considered "positive" if the $A405$ of the well was $\geq$2-fold over background.
(ELISA stands for enzyme-linked immunosorbent assay.)

The target in assay [2] is T2, lactate dehydrogenase (LDH).
T2 construct: Coated at 500 ng/well as non-specific target; also called LDH polypeptide
As to the kind of experiment: phage ELISA. The procedure: as §1

In assay [3] the target is T3, DGI-2 polypeptide (UniProt Q15004 1-111, limits assumed).
T3 construct: Soluble recombinant protein coated at 500 ng/well; vector tag of pIVEX2.3-MCS not described for this construct; also called KIAA0101
T3 sequence (looked up): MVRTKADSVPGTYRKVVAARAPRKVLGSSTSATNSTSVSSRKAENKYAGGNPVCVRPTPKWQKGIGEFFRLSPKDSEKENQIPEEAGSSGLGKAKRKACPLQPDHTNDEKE
As to the kind of experiment: phage ELISA. As to the method: as §1

For assay [4], the target named is T4, antibody raised against ETAG.
T4 construct: Coated at 500 ng/well; also called E-tag antibody
As to the kind of experiment: phage ELISA. As to the method: as §1

As to QVGGMTQVGATVLSVVTGRGSCDGEDAWYPPGVTVGLGLC (on M13 phage, pIII fusion with E-tag) [DGI-2-40F-4-F97], the binding result in assay [1] is “binds”.
For the molecule GITGLFCLCLRSSQSIAAAGAPVPYPDPLEPRP [DGI-2-20F-P0P-D6], in assay [2], the “LDH (OD)” value turned out to be 1 OD. Also, in assay [3], the “DGI-2 (OD)” value amounted to 3.3 OD and the DGI-2/LDH was 3.2 ratio. The “ETAG (OD)” value in assay [4] is 5.7 OD.
On to VCGQRVARMQLNKTIRKLDS (on M13 phage, pIII fusion with E-tag), for which the binding result in assay [1] is “binds”.
As to EGNWFCAVFRGFCVGDRGPE (not fully specified (bridges); cysteine pairing not given here, on M13 phage, pIII fusion with E-tag) [DGI-2-20R-3-A1], the binding result in assay [1] was “binds”.
As to VLGADAGMIWFMDGCGIRCR (not fully specified; cysteine pairing not given here, on M13 phage, pIII fusion with E-tag) [DGI-2-20R-4-E6], the binding result in assay [1] is reported as “binds”.
Turning to LGRTFVWGTCLHLSVSRFGHAAAGAPVPYPDPLEPRP [DGI-2-20F-PP-C3], the “LDH (OD)” value in assay [2] was 1 OD. In addition, in assay [3], the “DGI-2 (OD)” value was determined as 5.3 OD and the DGI-2/LDH came to 5.1 ratio. Moreover, the “ETAG (OD)” value in assay [4] was determined as 39.9 OD.
Taken in the same sequence, the figures for RSYPRLCKQKGGVIGRMLPGAAAGAPVPYPDPLEPRP [DGI-2-20F-PP-B2] were 1.1 OD, 3.3 OD, 2.9 ratio and 35.9 OD.
Regarding TIDVARRFGYGWWDLWLDGD (on M13 phage, pIII fusion with E-tag) [DGI-2-20R-3-C3], in assay [1], the binding result is “binds”.
In the case of SIILAGCVWVMPCGQNLGGVAAAGAPVPYPDPLEPRP [DGI-2-20F-PP-C4], the “LDH (OD)” value in assay [2] was found to be 0.9 OD. Besides, in assay [3], the “DGI-2 (OD)” value is 3 OD and the DGI-2/LDH amounted to 3.2 ratio. For the same molecule, the “ETAG (OD)” value in assay [4] is 36.1 OD.
Consider QLDCLVWGLPGLRCDRPLEQ (not fully specified (bridges); cysteine pairing not given here, on M13 phage, pIII fusion with E-tag) [DGI-2-20R-3-B10], for which the binding result in assay [1] is recorded as “binds”.
Still for that read-out and setting: under SLECWAMPGMVVRLVGCDGP (not fully specified (bridges); cysteine pairing not given here, on M13 phage, pIII fusion with E-tag) [DGI-2-20R-4-H112] stands “binds”; under WGCVFRQWASGSGAGCARRH (not fully specified; cysteine pairing not given here, on M13 phage, pIII fusion with E-tag) [DGI-2-20R-3-D9], “binds”; under RDTMCGSVSWGIPGCEYSGM (not fully specified; cysteine pairing not given here, on M13 phage, pIII fusion with E-tag) [DGI-2-20R-4-G122], “binds”.
With WAASCFWGHVALGCGRNGQG (not fully specified (bridges); cysteine pairing not given here, on M13 phage, pIII fusion with E-tag) [DGI-2-20R-3-A11], the binding result in assay [1] is “binds”.
With GRAGTSMTELVAWGFVQRVGAAAGAPVPYPDPLEPRP [DGI-2-20F-PP-H10], the “LDH (OD)” value in assay [2] is 0.7 OD. The “ETAG (OD)” value in assay [4] was found to be 13 OD.
As for VSFAHDWGRWWYQWEVG (on M13 phage, pIII fusion with E-tag) [DGI-2-20R-4-G22], the binding result in assay [1] is recorded as “binds”.
Still for that read-out and setting: under DQRVVGSGWFERLRNWYDRA (on M13 phage, pIII fusion with E-tag) [DGI-2-20R-4-G99] stands “binds”.
The same measure, in the same setting: under RSIRLQLIDEACQFFDGLCT (not fully specified; cysteine pairing not given here, on M13 phage, pIII fusion with E-tag) [DGI-2-20R-3-A8] stands “binds”.
On to SSVWATWGSDLRTFGSVGFLAAAGAPVPYPDPLEPRP [DGI-2-20F-PP-C7], for which the “LDH (OD)” value in assay [2] was determined as 1.1 OD. Moreover, in assay [3], the “DGI-2 (OD)” value stood at 3 OD and the DGI-2/LDH came to 2.6 ratio. In addition, the “ETAG (OD)” value in assay [4] amounted to 11 OD.
On to RRILPWSFPGCGRMC (not fully specified; cysteine pairing not given here, on M13 phage, pIII fusion with E-tag) [DGJ-2-20R-3-A10], for which the binding result in assay [1] is on record as “binds”.
Consider DRVARLATPTAGTMAAGSLGYERTVGCDSQDWFRCVVEGL (on M13 phage, pIII fusion with E-tag) [DGI-2-40F-3-D1044], for which the binding result in assay [1] is reported as “binds”.
On the same count and under the same terms, the same measure for RDTTSQWSWISRGWEFPGWR (on M13 phage, pIII fusion with E-tag) [DGI-2-20R-3-C2]: “binds”.
Take RERWGTAWNLWTEGVVDVRP (on M13 phage, pIII fusion with E-tag) [DGI-2-20F-3-B5]: the binding result in assay [1] is “binds”.
In the case of ERVSKCVGRGSGRSVGQFGGAAAGAPVPYPDPLEPRP, the “LDH (OD)” value in assay [2] was determined as 0.9 OD. Also, in assay [3], the “DGI-2 (OD)” value was found to be 3 OD and the DGI-2/LDH came to 3.4 ratio. The “ETAG (OD)” value in assay [4] was 11.1 OD.
The corresponding values for VCGQRVARMQLNKTIRKLDSAAAGAPVPYPDPLEPRP are 1.1 OD, 3.1 OD, 2.8 ratio and 35.1 OD.
Regarding QMSRVAFSPGESWRRWVEGV (on M13 phage, pIII fusion with E-tag) [DGI-2-20R-3-A2], the binding result in assay [1] is recorded as “binds”.
On to RGSLLLTLPRLSGAVGTAYGAAAGAPVPYPDPLEPRP [DGI-2-20F-PP-B3], for which, in assay [2], the “LDH (OD)” value came out at 1.1 OD. For the same molecule, in assay [3], the “DGI-2 (OD)” value worked out at 3.4 OD and the DGI-2/LDH is 3 ratio. Besides, the “ETAG (OD)” value in assay [4] is 11.7 OD.
For the molecule VRAVYSRDAYNEVGRWMRVGIAAAGAPVPYPDPLEPRP [DGI-2-20F-PP-D9], in assay [2], the “LDH (OD)” value amounted to 1 OD. Besides, in assay [3], the “DGI-2 (OD)” value came out at 2.9 OD and the DGI-2/LDH was 2.9 ratio. Moreover, the “ETAG (OD)” value in assay [4] was 9 OD.
Taken in the same sequence, the figures for VVHTRAWGSWAYGFVLRNRGAAAGAPVPYPDPLEPRP [DGI-2-20F-PP-F10] were 1.3 OD, 3.5 OD, 2.8 ratio and 42.5 OD.
Regarding ERVSKCVGRGSGRSVGQFGG (on M13 phage, pIII fusion with E-tag), in assay [1], the binding result is listed as “binds”.
Consider VCSGGKGTWLEIPDRVRSSTAAAGAPVPYPDPLEPRP [DGI-2-20F-PP-A22], for which the “LDH (OD)” value in assay [2] turned out to be 1 OD. In assay [3], the “DGI-2 (OD)” value came out at 3.3 OD and the DGI-2/LDH is 3.1 ratio. Further, the “ETAG (OD)” value in assay [4] came to 44.1 OD.
The corresponding values for EVFVSVWVFRFRVMPVTPGGTAAAGAPVPYPDPLEPRP [DGI-2-20F-PP-E6] are 1.2 OD, 3 OD, 2.6 ratio and 4.1 OD.
In the case of WWERFVWGRPVDDGVVVMAT (on M13 phage, pIII fusion with E-tag) [DGI-2-20R-3-B1], the binding result in assay [1] is “binds”.
Consider YAMSSRECGIRNSGLILSMWAAAGAPVPYPDPLEPRP [DGI-2-20F-PP-C9], for which the “LDH (OD)” value in assay [2] worked out at 0.9 OD. Further, in assay [3], the “DGI-2 (OD)” value amounted to 3.5 OD and the DGI-2/LDH turned out to be 3.9 ratio. For the same molecule, the “ETAG (OD)” value in assay [4] turned out to be 31.6 OD.
For SWACGLLWPGECGSQVARRG (not fully specified; cysteine pairing not given here, on M13 phage, pIII fusion with E-tag) [DGI-2-20R-3-D127], the binding result in assay [1] was “binds”.
